From PMC6555819, “Comprehensive study of nuclear receptor DNA binding provides a revised framework for understanding receptor specificity” come the findings set out here.

Sequences and labels used below:
B1: NRC3_wobSeed135_DR5_C13G_o1 (dsDNA)
DNA 1: GCCGAACTAGGTGATTGACAGGACAGTGAATAGTAAGCGATTGACAGCGTAGAATGAAGG
DNA 2: CCTTCATTCTACGCTGTCAATCGCTTACTATTCACTGTCCTGTCAATCACCTAGTTCGGC
B2: NRC3_wobSeed6_DR0_G17T_o1 (dsDNA)
DNA 1: GCCCTAGCAGGCCAGGTTCACTCAAGCATTTCGCTTGCGATTGACAGCGTAGAATGAAGG
DNA 2: CCTTCATTCTACGCTGTCAATCGCAAGCGAAATGCTTGAGTGAACCTGGCCTGCTAGGGC
B3: NRC3_wobSeed93_DR3_C13G_o1 (dsDNA)
DNA 1: GCAGTCAAAGTTGATCTAGGTAACGTAAGATATGCTGCGATTGACAGCGTAGAATGAAGG
DNA 2: CCTTCATTCTACGCTGTCAATCGCAGCATATCTTACGTTACCTAGATCAACTTTGACTGC
B4: NRC3_wobSeed76_DR3_A16T_o1 (dsDNA)
DNA 1: GCCCTACTGGGCCAATAAGGTCATTGATGCCGATAAGCGATTGACAGCGTAGAATGAAGG
DNA 2: CCTTCATTCTACGCTGTCAATCGCTTATCGGCATCAATGACCTTATTGGCCCAGTAGGGC
B5: NRC3_wobSeed36_DR1_A16C_o1 (dsDNA)
DNA 1: GCCCGACTGGGGCAACGGTTACCATACTCAGTACGAGCGATTGACAGCGTAGAATGAAGG
DNA 2: CCTTCATTCTACGCTGTCAATCGCTCGTACTGAGTATGGTAACCGTTGCCCCAGTCGGGC
B6: NRC3_random_hg19_224_o1 (dsDNA)
DNA 1: GCCTTCCTAACTGAATCACCTCATCAACAGCTAAACGCGATTGACAGCGTAGAATGAAGG
DNA 2: CCTTCATTCTACGCTGTCAATCGCGTTTAGCTGTTGATGAGGTGATTCAGTTAGGAAGGC
B7: NRC3_wobSeed101_DR4_C13A_o1 (dsDNA)
DNA 1: GCCCTTACGGGTAACTCCAGGTTATAGCATCGGAGTGCGATTGACAGCGTAGAATGAAGG
DNA 2: CCTTCATTCTACGCTGTCAATCGCACTCCGATGCTATAACCTGGAGTTACCCGTAAGGGC
B8: NRC3_wobSeed112_DR4_G5T_o1 (dsDNA)
DNA 1: GCTATCCTAGGTCAGATCGGGCCAGTATACGCTATAGCGATTGACAGCGTAGAATGAAGG
DNA 2: CCTTCATTCTACGCTGTCAATCGCTATAGCGTATACTGGCCCGATCTGACCTAGGATAGC
B9: NRC3_random_hg19_229_o1 (dsDNA)
DNA 1: GCTAAACTGTATCCACTTACCTTTCTCAGAACCTTTGCGATTGACAGCGTAGAATGAAGG
DNA 2: CCTTCATTCTACGCTGTCAATCGCAAAGGTTCTGAGAAAGGTAAGTGGATACAGTTTAGC
B10: NRC3_wobSeed16_DR0_G11T_o1 (dsDNA)
DNA 1: GCCAGCCTAGTTCAGGGCCAGTATAGGAGGAACGTTGCGATTGACAGCGTAGAATGAAGG
DNA 2: CCTTCATTCTACGCTGTCAATCGCAACGTTCCTCCTATACTGGCCCTGAACTAGGCTGGC
B11: NRC3_wobSeed123_DR5_G21T_o1 (dsDNA)
DNA 1: GCCCTCGGAGGACAACAGGATGTCAGAGCTGCCAGAGCGATTGACAGCGTAGAATGAAGG
DNA 2: CCTTCATTCTACGCTGTCAATCGCTCTGGCAGCTCTGACATCCTGTTGTCCTCCGAGGGC
B12: NRC3_wobSeed28_DR1_T19A_o1 (dsDNA)
DNA 1: GCCCTACTGGGCCAAAGGACATTGATTCCAATGCTCGCGATTGACAGCGTAGAATGAAGG
DNA 2: CCTTCATTCTACGCTGTCAATCGCGAGCATTGGAATCAATGTCCTTTGGCCCAGTAGGGC
B13: NRC3_wobSeed28_DR1_T19C_o1 (dsDNA)
DNA 1: GCCCTACTGGGCCAAAGGCCATTGATTCCAATGCTCGCGATTGACAGCGTAGAATGAAGG
DNA 2: CCTTCATTCTACGCTGTCAATCGCGAGCATTGGAATCAATGGCCTTTGGCCCAGTAGGGC
B14: NRC3_wobSeed125_DR5_A14C_o1 (dsDNA)
DNA 1: GCCCTTACGGGTCCCTGACAGGTTATAGCATTTGGAGCGATTGACAGCGTAGAATGAAGG
DNA 2: CCTTCATTCTACGCTGTCAATCGCTCCAAATGCTATAACCTGTCAGGGACCCGTAAGGGC
B15: NRC3_random_hg19_159_o1 (dsDNA)
DNA 1: GCGGTTCAACATTCAGCAAACATTGGATGATAGTTTGCGATTGACAGCGTAGAATGAAGG
DNA 2: CCTTCATTCTACGCTGTCAATCGCAAACTATCATCCAATGTTTGCTGAATGTTGAACCGC
B16: NRC3_wobSeed58_DR2_G10T_o1 (dsDNA)
DNA 1: GCATCGAAATGTCGTGAGGTGAGTATACAGAAAGGCGCGATTGACAGCGTAGAATGAAGG
DNA 2: CCTTCATTCTACGCTGTCAATCGCGCCTTTCTGTATACTCACCTCACGACATTTCGATGC
B17: NRC3_wobSeed58_DR2_G10C_o1 (dsDNA)
DNA 1: GCATCGAAACGTCGTGAGGTGAGTATACAGAAAGGCGCGATTGACAGCGTAGAATGAAGG
DNA 2: CCTTCATTCTACGCTGTCAATCGCGCCTTTCTGTATACTCACCTCACGACGTTTCGATGC
B18: NRC3_wobSeed63_DR2_G10A_o1 (dsDNA)
DNA 1: GCCGAACTAAGTCACCAGGACAGTGAAGAGGTTGGAGCGATTGACAGCGTAGAATGAAGG
DNA 2: CCTTCATTCTACGCTGTCAATCGCTCCAACCTCTTCACTGTCCTGGTGACTTAGTTCGGC
B19: NRC3_random_hg19_1_o1 (dsDNA)
DNA 1: GCGTGTTTGATTCTCATTGTCACCTTCTCTAGGCCTGCGATTGACAGCGTAGAATGAAGG
DNA 2: CCTTCATTCTACGCTGTCAATCGCAGGCCTAGAGAAGGTGACAATGAGAATCAAACACGC
B20: NRC3_wobSeed72_DR2_C15G_o1 (dsDNA)
DNA 1: GCTCGAGTAGGTTAGGGGGGCATTCAGGGATGAAGAGCGATTGACAGCGTAGAATGAAGG
DNA 2: CCTTCATTCTACGCTGTCAATCGCTCTTCATCCCTGAATGCCCCCCTAACCTACTCGAGC
B21: NRC3_wobSeed72_DR2_G17T_o1 (dsDNA)
DNA 1: GCTCGAGTAGGTTACGTGGGCATTCAGGGATGAAGAGCGATTGACAGCGTAGAATGAAGG
DNA 2: CCTTCATTCTACGCTGTCAATCGCTCTTCATCCCTGAATGCCCACGTAACCTACTCGAGC
B22: NRC3_wobSeed57_DR2_T19G_o1 (dsDNA)
DNA 1: GCATCTCTAGGTAACAAGGTCAGTGAAAGAGAGGACGCGATTGACAGCGTAGAATGAAGG
DNA 2: CCTTCATTCTACGCTGTCAATCGCGTCCTCTCTTTCACTGACCTTGTTACCTAGAGATGC
B23: NRC3_wobSeed110_DR4_A9T_o1 (dsDNA)
DNA 1: GCTCTGCTTGGTCAACGATGGTCAGCTAATCTGCTAGCGATTGACAGCGTAGAATGAAGG
DNA 2: CCTTCATTCTACGCTGTCAATCGCTAGCAGATTAGCTGACCATCGTTGACCAAGCAGAGC
B24: NRC3_wobSeed110_DR4_G10T_o1 (dsDNA)
DNA 1: GCTCTGCTATGTCAACGATGGTCAGCTAATCTGCTAGCGATTGACAGCGTAGAATGAAGG
DNA 2: CCTTCATTCTACGCTGTCAATCGCTAGCAGATTAGCTGACCATCGTTGACATAGCAGAGC
B25: NRC3_wobSeed136_DR5_G11C_o1 (dsDNA)
DNA 1: GCTAGCCTAGCTCATTCAGGGGCCAGTATAGAAAGCGCGATTGACAGCGTAGAATGAAGG
DNA 2: CCTTCATTCTACGCTGTCAATCGCGCTTTCTATACTGGCCCCTGAATGAGCTAGGCTAGC
B26: NRC3_wobSeed114_DR4_A14C_o1 (dsDNA)
DNA 1: GCAATACAGGGTCCTCGTAGGCCAGAGTACGCACAGGCGATTGACAGCGTAGAATGAAGG
DNA 2: CCTTCATTCTACGCTGTCAATCGCCTGTGCGTACTCTGGCCTACGAGGACCCTGTATTGC
B27: NRC3_wobSeed82_DR3_G10C_o1 (dsDNA)
DNA 1: GCATCGAAACGTCGACGAGGTGAGTATACACCGTTTGCGATTGACAGCGTAGAATGAAGG
DNA 2: CCTTCATTCTACGCTGTCAATCGCAAACGGTGTATACTCACCTCGTCGACGTTTCGATGC
B28: NRC3_wobSeed10_DR0_A9T_o1 (dsDNA)
DNA 1: GCATCGAATGGTCGAGGTGAGTATAGAGAAAGGGAAGCGATTGACAGCGTAGAATGAAGG
DNA 2: CCTTCATTCTACGCTGTCAATCGCTTCCCTTTCTCTATACTCACCTCGACCATTCGATGC
B29: NRC3_wobSeed62_DR2_T16G_o1 (dsDNA)
DNA 1: GCTCTGCTAGGTCAGGTGGTCAGCTAACGAGCTGCCGCGATTGACAGCGTAGAATGAAGG
DNA 2: CCTTCATTCTACGCTGTCAATCGCGGCAGCTCGTTAGCTGACCACCTGACCTAGCAGAGC
B30: NRC3_wobSeed99_DR4_G20C_o1 (dsDNA)
DNA 1: GCTCTCGGAGGACACGAAACGTCAGAGCTCGACATCGCGATTGACAGCGTAGAATGAAGG
DNA 2: CCTTCATTCTACGCTGTCAATCGCGATGTCGAGCTCTGACGTTTCGTGTCCTCCGAGAGC
B31: NRC3_wobSeed45_DR1_T11C_o1 (dsDNA)
DNA 1: GCTGTCAAAGCTCAAAGGTAACGTAAGTATCCACACGCGATTGACAGCGTAGAATGAAGG
DNA 2: CCTTCATTCTACGCTGTCAATCGCGTGTGGATACTTACGTTACCTTTGAGCTTTGACAGC

Chain of RARg:RXRa (P13631 whole entry, chain 1 of 2): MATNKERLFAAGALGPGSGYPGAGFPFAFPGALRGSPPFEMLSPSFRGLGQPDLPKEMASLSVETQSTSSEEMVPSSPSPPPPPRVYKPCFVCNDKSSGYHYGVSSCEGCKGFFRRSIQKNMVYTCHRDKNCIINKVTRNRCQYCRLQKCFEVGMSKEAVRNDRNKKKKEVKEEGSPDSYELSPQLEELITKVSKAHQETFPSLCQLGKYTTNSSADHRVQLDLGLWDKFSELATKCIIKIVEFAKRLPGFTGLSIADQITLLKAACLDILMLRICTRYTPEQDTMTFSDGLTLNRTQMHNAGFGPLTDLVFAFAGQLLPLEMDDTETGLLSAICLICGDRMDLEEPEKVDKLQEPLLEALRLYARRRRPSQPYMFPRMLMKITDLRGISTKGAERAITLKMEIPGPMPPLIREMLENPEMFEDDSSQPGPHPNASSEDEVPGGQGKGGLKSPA
Chain of RARg:RXRa (P19793 whole entry, chain 2 of 2): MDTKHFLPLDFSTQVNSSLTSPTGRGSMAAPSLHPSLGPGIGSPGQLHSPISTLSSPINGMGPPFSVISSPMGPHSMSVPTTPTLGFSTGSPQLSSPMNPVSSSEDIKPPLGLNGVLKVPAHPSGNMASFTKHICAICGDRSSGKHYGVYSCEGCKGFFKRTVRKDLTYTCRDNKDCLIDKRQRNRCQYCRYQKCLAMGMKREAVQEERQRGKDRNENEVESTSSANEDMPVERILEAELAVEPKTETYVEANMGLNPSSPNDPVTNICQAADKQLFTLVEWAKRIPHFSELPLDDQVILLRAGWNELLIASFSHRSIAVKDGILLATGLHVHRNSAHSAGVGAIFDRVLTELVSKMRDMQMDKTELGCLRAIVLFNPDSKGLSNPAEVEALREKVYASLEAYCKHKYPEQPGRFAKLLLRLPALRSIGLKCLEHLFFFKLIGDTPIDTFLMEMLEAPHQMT

This data set concerns the target RARg:RXRa (Homo sapiens, UniProt P13631;P19793 full;full). Kind of data set: no ligand; PBM; 270 nM : 90 nM RXRa; PBS pH 7.4, 2% milk, 0.02% Triton X-100, 1 mM DTT, BSA, 0.4 mg/ml salmon testes DNA. The note with it: tags: His kept;His cleaved; copies: 1;1; label: surface-attached array probe. The procedure, abridged: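 Scanned fluorescence from custom Agilent 4×180K protein-binding microarrays was regression-normalized. Binding z-scores use random background probes as reference. Ligand-free nuclear receptor dimers were incubated on the arrays for 1 h and detected with antibodies against each partner (one per run).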
Consider B1, for which the binding signal is 0.33 PBM z-score against 500 random probes. As for B2, the binding signal was 0.25 PBM z-score against 500 random probes. To B3 belongs 0.37 PBM z-score against 500 random probes. As to B4, the binding signal is 3.2 PBM z-score against 500 random probes. Take B5: the binding signal is 0.38 PBM z-score against 500 random probes. As for B6, the binding signal was 0.38 PBM z-score against 500 random probes. Turning to B7, the binding signal was 0.35 PBM z-score against 500 random probes. As to B8, the binding signal was 3.16 PBM z-score against 500 random probes. Next, B9: 0.44 PBM z-score against 500 random probes; B10: 0.39 PBM z-score against 500 random probes; B11: 0.5 PBM z-score against 500 random probes.

Turning to B12, the binding signal was 0.42 PBM z-score against 500 random probes.

B13: the binding signal is 0.32 PBM z-score against 500 random probes. As for B14, the binding signal is 0.36 PBM z-score against 500 random probes. In the case of B15, the binding signal is 0.49 PBM z-score against 500 random probes. To B16 belongs 0.29 PBM z-score against 500 random probes. As for B17, the binding signal is 0.27 PBM z-score against 500 random probes. Next, B18: 0.3 PBM z-score against 500 random probes; B19: 0.33 PBM z-score against 500 random probes; B20: 3.1 PBM z-score against 500 random probes.

As to B21, the binding signal is 0.43 PBM z-score against 500 random probes. To B22 belongs 3 PBM z-score against 500 random probes; to B23, 0.29 PBM z-score against 500 random probes. Consider B24, for which the binding signal is 0.22 PBM z-score against 500 random probes. As to B25, the binding signal was -0.31 PBM z-score against 500 random probes. On to B26, for which the binding signal is 0.23 PBM z-score against 500 random probes. As to B27, the binding signal was 0.46 PBM z-score against 500 random probes.

In the case of B28, the binding signal is 0.4 PBM z-score against 500 random probes. To B29 belongs 3.05 PBM z-score against 500 random probes.

For B30, the binding signal was 0.45 PBM z-score against 500 random probes.

As for B31, the binding signal is 0.5 PBM z-score against 500 random probes.
